The source of these data is paper PMC8177864.

Where two headings read alike, the source gives them in different places.

Data set [1] addresses T1, androgen receptor (rAR) (rat, UniProt P15207 1-902). In words: EMSA. (In general: In EMSA bound probe runs differently from free probe, usually more slowly.)
The target in data set [2] is T1, androgen receptor (rAR). In words: EMSA. This is another data set of the same source.

T1 sequence (P15207 whole entry S389L): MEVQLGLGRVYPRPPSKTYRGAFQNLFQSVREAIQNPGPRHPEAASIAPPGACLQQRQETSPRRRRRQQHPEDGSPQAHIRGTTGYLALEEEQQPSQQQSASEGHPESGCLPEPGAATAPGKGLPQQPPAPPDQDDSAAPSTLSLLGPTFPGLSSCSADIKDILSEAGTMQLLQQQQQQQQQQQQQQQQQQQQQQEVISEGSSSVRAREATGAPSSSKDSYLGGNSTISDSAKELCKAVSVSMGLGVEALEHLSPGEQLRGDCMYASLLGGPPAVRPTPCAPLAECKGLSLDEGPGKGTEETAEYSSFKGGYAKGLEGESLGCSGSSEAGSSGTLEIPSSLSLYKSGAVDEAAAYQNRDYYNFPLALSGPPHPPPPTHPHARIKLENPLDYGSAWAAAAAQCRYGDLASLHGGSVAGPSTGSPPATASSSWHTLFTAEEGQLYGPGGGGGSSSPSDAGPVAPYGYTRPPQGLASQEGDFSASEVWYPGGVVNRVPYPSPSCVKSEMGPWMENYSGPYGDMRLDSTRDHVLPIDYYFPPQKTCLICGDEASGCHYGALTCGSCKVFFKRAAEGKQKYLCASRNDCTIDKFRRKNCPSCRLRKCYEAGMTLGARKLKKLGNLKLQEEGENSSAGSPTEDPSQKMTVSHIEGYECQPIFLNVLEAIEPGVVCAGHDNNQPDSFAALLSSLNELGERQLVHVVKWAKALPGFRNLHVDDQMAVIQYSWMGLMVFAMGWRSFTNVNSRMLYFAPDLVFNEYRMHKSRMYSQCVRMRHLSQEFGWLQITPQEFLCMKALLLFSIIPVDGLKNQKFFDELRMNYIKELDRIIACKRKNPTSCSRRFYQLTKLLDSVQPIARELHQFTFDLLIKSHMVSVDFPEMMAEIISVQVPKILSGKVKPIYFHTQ

B1: -159/-144 HRE (dsDNA)
DNA 1: GGGCTTGGCATGTTCTGTTAGCACTCTTTTAGATT
DNA 2: AATCTAAAAGAGTGCTAACAGAACATGCCAAGCCC
For B1, in data set [1], the binding result is “no binding”.

B2: HRE consensus (dsDNA)
DNA 1: ACGGGTGGAACGCGGTGTTCTTTTGGCACG
DNA 2: CGTGCCAAAAGAACACCGCGTTCCACCCGT
In the case of B2, the binding result in data set [2] is on record as “binds”.

B3: -499/-484 HRE (dsDNA)
DNA 1: ATCTAGAATAATTGGTATTAGAACAGGCTGCTTAAAACAGTTAA
DNA 2: TTAACTGTTTTAAGCAGCCTGTTCTAATACCAATTATTCTAGAT
On to B3, for which, in data set [1], the binding result is on record as “no binding”.
